Assay results reported in paper doi:10.1101/2024.11.08.622622.
Read-outs that look alike come from different tables or passages of the source.

Columns and labels:
[1] = target: His6X-Hsp20KKK (IAI motif 209-211 mutated to KKK) (Ustilago maydis); assay: SEC
[2] = target: Ustilago maydis Hsp20, recombinant His6X-Hsp20 (Ustilago maydis); assay: SEC
[3] = target: Ustilago maydis Hsp20, recombinant His6X-Hsp20 (Ustilago maydis); assay: SEC; remark: listed apart in the source
[4] = target: actin (Alexa 488 tagged); assay: FRET or BRET

| Substance | stoichiometry N [1] | stoichiometry N [2] | stoichiometry N [3] | Kd [4] [nM] |
| --- | --- | --- | --- | --- |
| His6X-Hsp20KKK (IAI motif 209-211 mutated to KKK) (natural protein) | 2 | – | – | – |
| Ustilago maydis Hsp20, recombinant His6X-Hsp20 (natural protein) | – | 18 | 2 | 99.6 |
